Results from article PMC10397247.
Each block holds one binder with its values, some of them ahead of it.

Assays:
APC3265-AA = target: T1, APC3265-AA; experiment: two-hybrid library CCmax; settings: mean of both orientations;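 note: natural log of median RNA to DNA barcode read ratio; higher means stronger binding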
T1 chain: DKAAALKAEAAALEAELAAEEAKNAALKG

APC9182-AA = target: T2, APC9182-AA; experiment: two-hybrid library CCmax; settings: mean of both orientations;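 note: natural log of median RNA to DNA barcode read ratio; higher means stronger binding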
T2 chain: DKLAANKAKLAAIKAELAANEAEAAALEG

APC2474-AA = target: T3, APC2474-AA; experiment: two-hybrid library CCmax; settings: mean of both orientations;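 note: natural log of median RNA to DNA barcode read ratio; higher means stronger binding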
T3 chain: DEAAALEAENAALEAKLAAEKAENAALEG

APC222-AA = target: T4, APC222-AA; experiment: two-hybrid library CCmax; settings: mean of both orientations;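 note: natural log of median RNA to DNA barcode read ratio; higher means stronger binding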
T4 chain: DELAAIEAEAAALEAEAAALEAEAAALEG

APC9291-AA = target: T5, APC9291-AA; experiment: two-hybrid library CCmax; settings: mean of both orientations;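 note: natural log of median RNA to DNA barcode read ratio; higher means stronger binding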
T5 chain: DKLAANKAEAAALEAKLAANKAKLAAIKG

APC2556-AA = target: T6, APC2556-AA; experiment: two-hybrid library CCmax; settings: mean of both orientations;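 note: natural log of median RNA to DNA barcode read ratio; higher means stronger binding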
T6 chain: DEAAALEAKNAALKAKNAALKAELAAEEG

APC2543-AA = target: T7, APC2543-AA; experiment: two-hybrid library CCmax; settings: mean of both orientations
T7 chain: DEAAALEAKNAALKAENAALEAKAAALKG

APC542-AA = target: T8, APC542-AA; experiment: two-hybrid library CCmax; settings: mean of both orientations
T8 chain: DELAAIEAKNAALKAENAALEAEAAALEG

APC5531-AA = target: T9, APC5531-AA; experiment: two-hybrid library CCmax; settings: mean of both orientations
T9 chain: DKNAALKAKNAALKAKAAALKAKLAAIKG

APC3323-AA = target: T10, APC3323-AA; experiment: two-hybrid library CCmax; settings: mean of both orientations
T10 chain: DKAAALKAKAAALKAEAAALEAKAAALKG

APC4100-AA = target: T11, APC4100-AA; experiment: two-hybrid library CCmax; settings: mean of both orientations
T11 chain: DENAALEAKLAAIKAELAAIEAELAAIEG

APC9141-AA = target: T12, APC9141-AA; experiment: two-hybrid library CCmax; settings: mean of both orientations
T12 chain: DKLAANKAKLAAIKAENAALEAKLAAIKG

APC3354-AA = target: T13, APC3354-AA; experiment: two-hybrid library CCmax; settings: mean of both orientations
T13 chain: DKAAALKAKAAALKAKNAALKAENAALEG

APC8516-AA = target: T14, APC8516-AA; experiment: two-hybrid library CCmax; settings: mean of both orientations
T14 chain: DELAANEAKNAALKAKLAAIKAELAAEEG

APC2724-AA = target: T15, APC2724-AA; experiment: two-hybrid library CCmax; settings: mean of both orientations
T15 chain: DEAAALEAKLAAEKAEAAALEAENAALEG

APC1987-AA = target: T16, APC1987-AA; experiment: two-hybrid library CCmax; settings: mean of both orientations
T16 chain: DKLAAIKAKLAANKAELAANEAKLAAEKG

APC1242-AA = target: T17, APC1242-AA; experiment: two-hybrid library CCmax
T17 chain: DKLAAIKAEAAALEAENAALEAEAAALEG

APC7524-AA = target: T18, APC7524-AA; experiment: two-hybrid library CCmax; settings: mean of both orientations
T18 chain: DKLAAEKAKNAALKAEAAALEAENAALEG

APC2811-AA = target: T19, APC2811-AA; experiment: two-hybrid library CCmax; settings: mean of both orientations
T19 chain: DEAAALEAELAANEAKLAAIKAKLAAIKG

APC2375-AA = target: T20, APC2375-AA; experiment: two-hybrid library CCmax; settings: mean of both orientations
T20 chain: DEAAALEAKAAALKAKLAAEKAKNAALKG

APC2981-AA = target: T21, APC2981-AA; experiment: two-hybrid library CCmax; settings: mean of both orientations
T21 chain: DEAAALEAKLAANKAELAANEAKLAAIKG

APC8401-AA = target: T22, APC8401-AA; experiment: two-hybrid library CCmax; settings: mean of both orientations
T22 chain: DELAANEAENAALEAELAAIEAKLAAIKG

APC2257-AA = target: T23, APC2257-AA; experiment: two-hybrid library CCmax; settings: mean of both orientations
T23 chain: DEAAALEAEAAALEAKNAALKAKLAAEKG

APC1916-AA = target: T24, APC1916-AA; experiment: two-hybrid library CCmax; settings: mean of both orientations
T24 chain: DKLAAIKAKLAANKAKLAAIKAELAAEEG

APC4336-AA = target: T25, APC4336-AA; experiment: two-hybrid library CCmax; settings: mean of both orientations
T25 chain: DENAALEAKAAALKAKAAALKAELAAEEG

APC6088-AA = target: T26, APC6088-AA; experiment: two-hybrid library CCmax; settings: mean of both orientations
T26 chain: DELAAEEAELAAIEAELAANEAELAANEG

APC3881-AA = target: T27, APC3881-AA; experiment: two-hybrid library CCmax; settings: mean of both orientations
T27 chain: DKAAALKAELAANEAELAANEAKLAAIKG

APC9806-AA = target: T28, APC9806-AA; experiment: two-hybrid library CCmax; settings: mean of both orientations
T28 chain: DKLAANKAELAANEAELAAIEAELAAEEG

APC5009-AA = target: T29, APC5009-AA; experiment: two-hybrid library CCmax; settings: mean of both orientations
T29 chain: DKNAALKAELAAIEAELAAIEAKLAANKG

4H2937-bA = target: T30, 4H2937-bA; experiment: two-hybrid library CCNG1
T30 chain: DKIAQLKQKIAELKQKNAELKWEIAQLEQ

4H2944-bA = target: T31, 4H2944-bA; experiment: two-hybrid library CCNG1
T31 chain: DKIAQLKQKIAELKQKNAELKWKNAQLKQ

4H491-bA = target: T32, 4H491-bA; experiment: two-hybrid library CCNG1
T32 chain: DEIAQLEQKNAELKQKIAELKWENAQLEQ

4H2883-bA = target: T33, 4H2883-bA; experiment: two-hybrid library CCNG1
T33 chain: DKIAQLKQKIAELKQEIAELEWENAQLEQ

4H342-bA = target: T34, 4H342-bA; experiment: two-hybrid library CCNG1
T34 chain: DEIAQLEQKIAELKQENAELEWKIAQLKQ

4H48-bA = target: T35, 4H48-bA; experiment: two-hybrid library CCNG1
T35 chain: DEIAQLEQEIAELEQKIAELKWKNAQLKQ

4H2696-bA = target: T36, 4H2696-bA; experiment: two-hybrid library CCNG1
T36 chain: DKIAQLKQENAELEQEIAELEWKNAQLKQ

interaction score (APC3265-AA): -1.56 | interaction score (APC9182-AA): -1.34 | interaction score (APC2474-AA): -1.53 | interaction score (APC222-AA): -1.71 | interaction score (APC9291-AA): -1.76 | interaction score (APC2556-AA): -1.73 | interaction score (APC2543-AA): -1.38 | interaction score (APC542-AA): -2.16 | interaction score (APC5531-AA): -1.83 | interaction score (APC3323-AA): -1.85 | interaction score (APC4100-AA): -1.76 | interaction score (APC9141-AA): -1.7 | interaction score (APC3354-AA): -1.74 | interaction score (APC8516-AA): -1.75 | interaction score (APC2724-AA): -1.96 | interaction score (APC1987-AA): -1.67 | interaction score (APC1242-AA): -1.39 | interaction score (APC7524-AA): -1.82 | interaction score (APC2811-AA): -1.73 | interaction score (APC2375-AA): -1.54 | interaction score (APC2981-AA): -1.87 | interaction score (APC8401-AA): -1.53 | interaction score (APC2257-AA): -1.45 | interaction score (APC1916-AA): -0.197 | interaction score (APC4336-AA): -2.21 | interaction score (APC6088-AA): -1.12 | interaction score (APC3881-AA): -1.81 | interaction score (APC9806-AA): -1.43 | interaction score (APC5009-AA): -1.74
Binder: DKLAAIKAEAAALEAENAALEAEAAALEG [APC1242-AA]

interaction score (4H2937-bA): 0.659 | interaction score (4H2944-bA): 0.173 | interaction score (4H491-bA): 1.93 | interaction score (4H2883-bA): 0.674 | interaction score (4H342-bA): -0.319 | interaction score (4H48-bA): -0.267 | interaction score (4H2696-bA): -0.668
Binder: DKIAQLKQENAELEQEIAELEWKNAQLKQ [4H2696-bA]
